Source: article PMC2747274 (2009)

Columns and labels:
Assay in all cases: FP
[1] = target: fluorescently labeled histone H4 tail peptide, trimethylated at K20 (UniProt P62805, trimethyl-lysine at K20; fluorescent label (position not given))
[2] = target: fluorescently labeled histone H4 tail peptide, monomethylated at K20 (UniProt P62805, monomethyl-lysine at K20; fluorescent label (position not given))
[3] = target: fluorescently labeled histone H3 tail peptide, dimethylated at K9 (UniProt P68431, dimethyl-lysine at K9; fluorescent label (position not given))
[4] = target: fluorescently labeled histone H4 tail peptide, dimethylated at K20 (UniProt P62805, dimethyl-lysine at K20; fluorescent label (position not given))
[5] = target: fluorescently labeled histone H3 tail peptide, monomethylated at K4 (UniProt P68431, monomethyl-lysine at K4; fluorescent label (position not given))
[6] = target: fluorescently labeled histone H3 tail peptide, monomethylated at K27 (UniProt P68431, monomethyl-lysine at K27; fluorescent label (position not given))
[7] = target: fluorescently labeled histone H3 tail peptide, dimethylated at K27 (UniProt P68431, dimethyl-lysine at K27; fluorescent label (position not given))
[8] = target: fluorescently labeled histone H3 tail peptide, monomethylated at K9 (UniProt P68431, monomethyl-lysine at K9; fluorescent label (position not given))
[9] = target: fluorescently labeled histone H4 tail peptide, K20 unmodified (UniProt P62805, fluorescent label (position not given))
[10] = target: fluorescently labeled histone H3 tail peptide, dimethylated at K4 (UniProt P68431, dimethyl-lysine at K4; fluorescent label (position not given))

Kd [1]: 680 µM
Kd [2]: 7 µM
Kd [3]: 550 µM
Kd [4]: 13 µM
Kd [5]: 126 µM
Kd [6]: 244 µM
Kd [7]: 185 µM
Kd [8]: 152 µM
Kd [9]: 480 µM
Kd [10]: 145 µM
B1: human MBTD1 (Malignant Brain Tumor domain-containing protein 1) fragment composed of all four MBT repeats (residues 130-566) (domain or fragment)
chain: AKTKAAVSMEGFSWGNYINSNSFIAAPVTCFKHAPMGTCWGDISENVRVEVPNTDCSLPTKVFWIAGIVKLAGYNALLRYEGFENDSGLDFWCNICGSDIHPVGWCAASGKPLVPPRTIQHKYTNWKAFLVKRLTGAKTLPPDFSQKVSESMQYPFKPCMRVEVVDKRHLCRTRVAVVESVIGGRLRLVYEESEDRTDDFWCHMHSPLIHHIGWSRSIGHRFKRSDITKKQDGHFDTPPHLFAKVKEVDQSGEWFKEGMKLEAIDPLNLSTICVATIRKVLADGFLMIGIDGSEAADGSDWFCYHATSPSIFPVGFCEINMIELTPPRGYTKLPFKWFDYLRETGSIAAPVKLFNKDVPNHGFRVGMKLEAVDLMEPRLICVATVTRIIHRLLRIHFDGWEEEYDQWVDCESPDLYPVGWCQLTGYQLQPPASQSSR
